Test results from article PMC5548392.

Target: RAB21 (UniProt P35282)
Test: GST pull-down with purified proteins
Settings: reference: RPH3A incubated with PKN1 without ATP; sites S234,S271

RPH3A (Rabphilin 3A) (from UniProt P47708) RPH3A incubated with PKN1 and ATP
binding against the reference: stronger
